Test [1] addresses T1, HDM2-YFP fusion protein (p53-binding domain of human HDM2, residues 1-109, C-terminally fused to Yellow … (human, UniProt Q00987 1-109)).
T1 construct: range 1-109; Expressed in E. coli BL21(DE3) from pET22-HDM2-YFP-His; also called HMD2; HDM2-YFP-His; not shown: Yellow Fluorescent Protein (YFP); C-terminal His tag
The test can be described thus: SPR inhibition assay: inhibitor added to soluble HDM2-YFP, binding to immobilized biotin-SGSG-p53(15-29) is inhibited. The procedure:
(§1) The surface plasmon resonance (SPR)-based inhibition assays were performed using a BIAcore T100 instrument. […] Running buffer and sample buffer contained 10 mM HEPES buffer, pH 7.4 with 150 mM NaCl, 3 mM EDTA and 0.05% v/v Tween 20. […] With increasing concentrations of the inhibitor, binding of HDM2 (or HDMX) to the surface is inhibited, leading to a decrease in biosensor response. HDM2/HDMX plus inhibitor samples were injected at a rate of 30 uL/min over a 2 minute interval by a 2 minute dissociation period and a 10-second regeneration step using 10 mM HCl. Specific binding curves for each concentration of inhibitor were obtained by subtracting the response in the reference surface from the response in the p53-coated surface.

For test [2], the target named is T2, HDMX-YFP fusion protein (p53-binding domain of human HDMX, residues 1-109, C-terminally fused to Yellow … (human, UniProt O15151 1-109)).
T2 construct: range 1-109; Expressed in E. coli BL21(DE3) from pET22-HDMX-YFP-His; also called HMDX; HDM4; not shown: Yellow Fluorescent Protein (YFP); C-terminal His tag
T2 sequence (looked up): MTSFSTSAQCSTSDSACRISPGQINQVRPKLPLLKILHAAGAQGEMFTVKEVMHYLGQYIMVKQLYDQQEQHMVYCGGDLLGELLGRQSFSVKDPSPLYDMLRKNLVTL
The test can be described thus: SPR inhibition assay: inhibitor added to soluble HDMX-YFP, binding to immobilized biotin-SGSG-p53(15-29) is inhibited. As for the experimental part: as §1

Test [3] deals with T2, HDMX-YFP fusion protein (p53-binding …). Nature of the test: SPR inhibition assay, competitor immobilised biotin-p53(15-29). As for the experimental part: as §1
For test [4] the target is unchanged. The test can be described thus: SPR inhibition assay, competitor immobilised biotin-p53(15-29); the sentence does not say which homolog. The procedure:
as §1

Test [5] deals with T1, HDM2-YFP fusion protein (p53-binding …). Nature of the test: fluorescence polarization, fluorescein-labeled compound (25-200 nM) titrated with HDM2 (10 nM to 2 µM). As for the experimental part:
HDM2 binding studies. […] In the assay, 25-200 nM of the fluorescein-labeled compound and HDM2 concentrations varying from 10 nM to 2 μM were tested. The experiments were performed at room temperature in black 96-well plates with a final volume of 75 μL in PBS buffer with addition of 1% DMSO. Fluorescence was detected at excitation/emission of 470/520 nm and change in fluorescence polarization was plotted against the varying protein concentration.
(Polarisation of emitted light reports the rotation of a fluorescent probe.)

Bridges are numbered along the chain shown (N, C = ends). Where no end group is shown, it is not given here. [ ]: non-standard residue; d: D form. The star is where a group is joined. SP8 = 3-amino-N-(3-(aminooxy)propyl)-4-(mercaptomethyl)benzamide, macrocycle-forming linker reagent; mAcF = meta-acetyl-L-phenylalanine, its ketone forms an oxime with the linker; pAcF = para-acetyl-L-phenylalanine, its ketone forms an oxime with the linker; FITC = O=C1OC2(c3ccc(O)cc3Oc3cc(O)ccc32)c2ccc(NC(=S)*)cc21; Trp(6-Cl) = N[C@@H](Cc1c[nH]c2cc(Cl)ccc12)C(=O)O; Phe(4-Ac) = CC(=O)c1ccc(C[C@H](N)C(=O)O)cc1; SP4 = not defined here; SP6 = not defined here; SP9 = not defined here; βAla = NCCC(=O)O Bounds are passed on as bounds.

As a reminder, the IC50 is the concentration that inhibits the measured activity by half. A word on the Kd: it is a measure of binding affinity in units of concentration. A lower Kd goes with tighter binding.

T1 sequence (Q00987 1-109): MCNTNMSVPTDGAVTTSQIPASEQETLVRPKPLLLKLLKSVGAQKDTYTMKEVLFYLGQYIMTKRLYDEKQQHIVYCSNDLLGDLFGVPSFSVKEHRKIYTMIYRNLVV

B1: P17 (peptide)
peptide: Ac-[pAcF]SFAEY[Trp(6-Cl)]ALLA
modifications: linker 1-C via SP9; reading uncertain; also: linker thiol capped with iodoacetamide
notes: also called Ac-(pAcF)SFAEY(6ClW)ALLA, SP9-linked macrocycle
B1 had an IC50 in test [1] of 305 nM.

B2: P2 (peptide)
peptide: Ac-GTSFAYYWNLLA-NH2
notes: also called acyclic counterpart of P3 and P4
For B2, the IC50 in test [1] came to 1510 nM; in test [2], 7500 nM.

B3: P19 (peptide)
peptide: Ac-[pAcF]SFAEY[Trp(6-Cl)]ALLA
modifications: linker 1-C via SP4; reading uncertain; also: linker thiol capped with iodoacetamide
notes: also called Ac-(pAcF)SFAEY(6ClW)ALLA, SP4-linked macrocycle
As to B3, in test [1], the IC50 was above 50000 nM.

B4: P16 (peptide)
peptide: Ac-[mAcF]SFAEY[Trp(6-Cl)]ALLA
modifications: linker 1-C via SP8; also: linker thiol capped with iodoacetamide
notes: also called Ac-(mAcF)SFAEY(6ClW)ALLA, SP8-linked macrocycle
Take B4: in test [1], the concentration for half-maximal inhibition (IC50) worked out at 105 nM.
In the case of Ac-G[pAcF]SFAEYWNLLA (linker 2-C via SP8; also: linker thiol capped with iodoacetamide) [P12], the IC50 in test [1] was 145 nM.

B5: p53 macrocyclic peptidomimetic P7 (i/i+10(CO)-linked, SP6-based linker) (peptide)
peptide: G[Phe(4-Ac)]SFAEYWNLLA
modifications: linker 2-C via SP6; reading uncertain; also: linker thiol capped with iodoacetamide
In test [3], B5 yielded an IC50 of 910 nM.
As for GTSFA[pAcF]YWNLLA (linker 6-C via SP8; also: linker thiol capped with iodoacetamide) [p53 macrocyclic peptidomimetic P4 (i/i+6(CO)-linked, SP8-based linker)], the half-inhibitory concentration (IC50) in test [1] was 1500 nM; in test [2], 3500 nM.

B6: p53 macrocyclic peptidomimetic P5 (i/i+6(CO)-linked, distance-mismatched SP4-based linker; negative control) (peptide)
peptide: GTSFA[Phe(4-Ac)]YWNLLA
modifications: linker 6-C via SP4; reading uncertain; also: linker thiol capped with iodoacetamide
notes: also called SP4-based macrocycle P5
In test [4], B6 gave a 50% inhibitory concentration (IC50) of around 10000 nM.

B7: P11 (peptide)
peptide: Ac-[Phe(4-Ac)]SFAEY[Trp(6-Cl)]ALLA-NH2
SMILES: CC(=O)N[C@@H](Cc1ccc(C(C)=O)cc1)C(=O)N[C@@H](CO)C(=O)N[C@@H](Cc1ccccc1)C(=O)N[C@@H](C)C(=O)N[C@@H](CCC(=O)O)C(=O)N[C@@H](Cc1ccc(O)cc1)C(=O)N[C@@H](Cc1c[nH]c2cc(Cl)ccc12)C(=O)N[C@@H](C)C(=O)N[C@@H](CC(C)C)C(=O)N[C@@H](CC(C)C)C(=O)N[C@@H](C)C(N)=O
notes: also called Ac-(pAcF)SFAEY(6ClW)ALLA-NH2
Regarding B7, the 50% inhibitory concentration (IC50) in test [1] turned out to be 30 nM.
Same read-out and setting: as for Ac-[mAcF]SFAEYWNLLA (linker 1-C via SP8; also: linker thiol capped with iodoacetamide) [P14], the figure is 255 nM; as for Ac-[pAcF]SFAEYWNLLA (linker 1-C via SP8; also: linker thiol capped with iodoacetamide) [P13], 135 nM.

B8: P18 (peptide)
peptide: Ac-[mAcF]SFAEY[Trp(6-Cl)]ALLA
modifications: linker 1-C via SP9; reading uncertain; also: linker thiol capped with iodoacetamide
notes: also called Ac-(mAcF)SFAEY(6ClW)ALLA, SP9-linked macrocycle
Take B8: the IC50 in test [1] was 400 nM.

B9: p53 macrocyclic peptidomimetic P3 (i/i+6(CO)-linked, SP6-based linker) (peptide)
peptide: GTSFA[Phe(4-Ac)]YWNLLA
modifications: linker 6-C via SP6; reading uncertain; also: linker thiol capped with iodoacetamide
As to B9, the IC50 in test [1] came out at 870 nM; in test [2], 4100 nM.
Consider {FITC-βAla}-G[pAcF]SFAEYWNLLA (linker 2-C via SP8; also: linker thiol capped with iodoacetamide, also called fluorescein-conjugated P8) [FITC-β-Ala-P8 (fluorescein-labeled derivative of macrocycle P8)], for which the Kd in test [5] amounted to 63 nM.

B10: p53 macrocyclic peptidomimetic P8 (i/i+10(CO)-linked, SP8-based linker) (peptide)
peptide: G[Phe(4-Ac)]SFAEYWNLLA
modifications: bridge 2-C; not fully specified (bridges); also: linker thiol capped with iodoacetamide
In turn, B10 displayed an IC50 in test [3] of 340 nM.

Source of the values: US20170037084A1 (UNIVERSITY OF ROCHESTER, published 2017).
